# Assay results taken from the RNAGym collection of RNA variant scans (doi:10.7554/elife.90254).
# B1: LINE1-full (parent)
# chain: UACGUAGGUGGUUUUCCCCUGAUAGUGCUAAGGGGGCCUGGAAGUUUGGACUGGGCAGAGCUCAACACAGCGUGGCAAAGUGGCUGUGGCUAGACUGCCUCUCUGGAUUCCUCGUCACUCAGCAGGGCAUCUCUGAGAGAAAUGCC
# Variants of: B1
# Assay: self-cleavage, relative activity (ratio to wild type); higher = more cleavage; in vitro, sequencing; the parent is a self-cleaving ribozyme
row,Variant,self-cleavage
1,A22U U45A,0.83
2,G36C U45C,1.05
3,G55A A107G,0.22
4,U115G C145U,1.1
5,A43G A78G,1.2
6,C116U A124U,1.87
7,U23A C118U,1.22
8,U104C U134C,1.62
9,U12A U39C,1.17
10,G7C A92G,0
11,U91G A129U,0.05
12,U112C C128U,1.35
13,U5A U52A,0.52
14,A22U A117U,1.36
15,G11A A77U,1.58
16,U5A U112C,0.71
17,U13C U62A,0.12
18,A67U C128U,0.1
19,U45G U87A,0.07
20,A67G U102C,0.58
21,A94C U130C,0.09
22,U13A G48A,1.01
23,G35U U91C,0.52
24,G88A A121U,0.04

row,Variant,self-cleavage
1,U23A A31U,0.37
2,U52A U73A,1.63
3,U20C A57G,1.19
4,A30U C90G,0.09
5,A64U U134C,0.51
6,G32A A64U,0.36
7,A22U U109A,1.34
8,A129G U143A,1.77
9,A59G A67U,0.06
10,U47A U109A,1.74
11,G10U C145A,1
12,U47C A69G,0.44
13,U45A U81C,1.92
14,U1C U96C,0.12
15,U5A U46C,1.03
16,G4A U39C,1.31
17,A138G G144C,1.6
18,U9A C61U,0.02
19,U15A C146U,0.88
20,C17A A42G,1.13
21,A129U A142G,1.43
22,G55A A138G,0.51
23,A42U U112C,1.08
24,U119A U143G,0.91

row,Variant,self-cleavage
1,A6G A57U,0.42
2,U15C C120U,1.72
3,U12C G86A,0.14
4,U112C A136G,1.51
5,U9C A59U,0.72
6,A22G G53A,1.09
7,A31G A129U,0.84
8,G4A A24U,1.8
9,C51A A138G,1.44
10,A77U U115A,0.82
11,U9C U46A,1.18
12,U12G A79G,1.25
13,U15A U20G,0.68
14,U52A C110U,1.23
15,U52A C98U,0.12
16,A57U U85A,0.05
17,C63U A129U,0.54
18,A64G G72U,0.12
19,G70A A92G,0.04
20,G8C A140G,2.03
21,G55U U85A,0.03
22,U9A C71A,0.6
23,A2U U73A,0.45
24,A94G A107U,0.3

row,Variant,self-cleavage
1,C19U A136U,1.41
2,U85G C113A,0.14
3,G4A A94G,0.21
4,G10A C99A,0.42
5,U87C U104A,0.09
6,U15A A30G,1.16
7,U39C C61G,0.07
8,A69C A138G,0.16
9,U81A U112A,1.7
10,U81A A129U,2.57
11,G89U A92U,0.07
12,A57C A77U,0.08
13,U62A U119C,0.03
14,C66U U100C,0.07
15,A64C A129G,0.51
16,U45A A59C,1.01
17,G72A A107G,1.36
18,A6U A43G,1.01
19,U29C U108C,1.27
20,A31G U119A,1.39
21,G27A U73C,0.93
22,U12G G32A,0.78
23,U132C A141G,1.46
24,U112A U132A,1.69

row,Variant,self-cleavage
1,U52A U96C,0.15
2,U39A U73C,1.38
3,A50U A140G,1.05
4,A6G U73A,1.11
5,U81G U104A,1.23
6,U26A C95U,0.17
7,U14C U23A,1.62
8,A2G U5A,0.42
9,U39A A43C,0.66
10,U23C U143A,1.28
11,A43U U46A,1.24
12,U109C C111U,1.31
13,A94G A117G,0.36
14,U46C A50U,1.26
15,G53A U134G,0.56
16,A65G A92G,0.09
17,A65U A78C,0.27
18,A42G U52C,1.17
19,G35A,1.1
20,A77U U134G,1.47
21,A92G U134A,0
22,A121U A138C,1.56
23,A2G C66U,0.4
24,A43G U96A,0.07

row,Variant,self-cleavage
1,A57G U62C,0.08
2,G54U U108C,0.36
3,G27A G54A,0.59
4,G32U C113A,0.96
5,U47C U130C,1.63
6,G41C A59G,0.19
7,A77U U104A,0.58
8,U119A A142G,1.48
9,U108G A121U,1.86
10,U23C U39A,1.2
11,G8A A107G,1.58
12,U15A G21A,1.15
13,U85G A107U,0.27
14,U96C A117U,0.1
15,A64U,0.41
16,U15A U46G,0.85
17,C84A U108A,0.12
18,U115A A124U,1.79
19,A57G G83C,0.17
20,U9A U39A,1.16
21,U9C C146U,1.1
22,A22U U102C,1.06
23,U23C C56A,0.07
24,A24G G33C,0.8

row,Variant,self-cleavage
1,G4A U130A,0.55
2,U134G A142G,1.16
3,U73C,1.72
4,U1G A78G,1.25
5,A69G U85C,0.51
6,U45C G106U,1.17
7,A117U A136U,1.67
8,U87A G106C,0.08
9,C71U U119C,1.18
10,U15C G82U,1.9
11,G21U U81C,1.01
12,U100C G105U,2.13
13,U1A A22U,0.41
14,A42G A129C,2.1
15,U109C G114U,1.33
16,A6C U134C,0.61
17,U12G A138U,1.02
18,A57C G72U,0.03
19,C95A A129G,0.09
20,A77U G114A,1.65
21,G32A A57G,1.37
22,U15C U109G,0.84
23,A43G U143C,1.36
